Test results: paper PMC2915670

What was measured:
[1] = target: FMDV 2C(61–318) (foot-and-mouth disease virus, type [change])
FMDV 2C(34-318) = FMDV 2C(34-318) (Foot-and-mouth disease virus type O1K, UniProt P03305 1141-1425); experiment: EMSA

Work on FMDV 2C(61–318) (domain or fragment) yielded an ATPase activity (pmol Pi/pmol protein/min) [1] of 0.46.

CGCGAAUAAUUU (ssRNA) [12-base ssRNA]: binds (FMDV 2C(34-318)).

For AAUUCUAAGGGCCAGCGAGA (ssRNA) [20-base ssRNA], the Kd (FMDV 2C(34-318)) was ~5 µM.
